The Human Domainome abundance scans (Beltran et al. 2025)

B1: Far upstream element-binding protein 1, residues 184 to 257; numbered along this chain, Q96AE4 (parent)
chain: GNAVQEIMIPASKAGLVIGKGGETIKQLQERAGVKMVMIQDGPQNTGADKPLRITGDPYKVQQAKEMVLELIRD

Variants of: B1
Assay: abundance fitness (aPCA) (normalised: wild type 0, dead -1); higher = more abundant; growth selection in yeast, the domain comes from the species named
Settings: Homo sapiens

Abundance fitness: each site, then its substitutions
L16: Q -0.093; I -0.048; E -0.06; C -0.147; G -0.191; T -0.058; P -0.581; D -0.053; F 0.003; H -0.15; N -0.103; R -0.087; S -0.122; M -0.018; W -0.068; K -0.008; A -0.028; Y -0.045
K20: M -0.112; H -0.045; T -0.035; V -0.031; S -0.042; C -0.14; Y -0.023; F -0.07; E -0.01; N -0.016; G -0.105; D 0.049; P -0.026; W -0.166; I -0.129; A 0.02
A14: L 0.042; N -0.061; R 0.001; P -0.643; G -0.193; F -0.022; V -0.017; S -0.049; E -0.014; C 0.031; K -0.065; Y -0.039; T 0.035; M 0.033; H 0.034; Q 0.028; I 0.039; D -0.109
Q27: S -0.021; V -0.095; T -0.081; R -0.011; Y -0.129; E -0.001; C -0.08; L -0.083; H -0.008; K 0.032; A -0.05; M -0.008; W -0.05; N -0.012; I -0.019; G -0.013; D -0.005
V17: G -0.599; Q -0.703; S -0.505; R -0.687; K -0.679; D -0.479; P -0.759; Y -0.428; N -0.594; C -0.272; E -0.503; M -0.08; I -0.06; H -0.589; A -0.427; W -0.294
R31: L -0.125; Y -0.168; F -0.155; M -0.096; T -0.042; C -0.084; H 0.032; P -0.484; S -0.008; E 0; Q 0.017; A -0.036; G -0.106; K 0.016; V -0.113; W -0.221; I -0.12; D -0.028
I25: V -0.125; E -0.638; F -0.158; A -0.32; G -0.624; S -0.387; R -0.316; D -0.359; H -0.324; L 0.002; K -0.371; Y -0.332; C -0.267; T -0.361; P -0.64; M 0.03
K26: L -0.087; Y -0.041; V -0.157; F -0.129; P -0.447; T -0.066; G -0.098; I 0.013; H -0.198; E -0.093; D -0.111; N -0.09; C -0.179; M -0.122; R -0.021
A32: C 0.006; D -0.412
G21: E -0.059; H -0.015; Q -0.028; C -0.076; S -0.033; D -0.024; L -0.1; N 0.05; P -0.493; K 0.015; F -0.05; T -0.05; M -0.033; I -0.278; R 0.003; V -0.219
I18: H -0.009; S -0.09; M -0.065; R -0.104; L 0.008; C -0.12; P -0.292; K -0.117; T 0.011; V -0.018; G -0.148; E -0.028; Q -0.058; D -0.152; A 0.038; Y -0.106
E23: A 0.042; K 0.062; G 0.018; C -0.011; H 0.072; T 0.041; M -0.041; N -0.026; D -0.037; F -0.101; R 0.136; P -0.434; Q -0.021; I -0.051; V -0.063; Y -0.067; S 0.043; W -0.087; L -0.051
G19: H -0.376; Q -0.363; A -0.339; V -0.763; I -0.931; K -0.445; M -0.551; T -0.371; E -0.297; N -0.278; P -0.629; S -0.366; D -0.204; L -0.598; Y -0.685; C -0.473; R -0.438; F -0.519
Q29: V -0.351; A -0.018; T -0.247; L -0.45; K -0.189; H -0.557; Y -0.67; M -0.044; S -0.029; R -0.137; P -0.748; W -0.345; G -0.142; E -0.026; C -0.2; I -0.342; D -0.602
G22: V -0.261; A 0.003; L -0.157; I -0.417; E -0.056; R -0.116; C -0.106; T -0.29; K -0.14; Q -0.075; H -0.127; M -0.115; S -0.114; Y -0.237; F -0.145; P -0.328
G15: C 0.127; I -0.028; E 0.04; Q -0.031; Y -0.035; A -0.126; D -0.031; W -0.005; M 0.042; P -0.128; N 0.011; L -0.026; T -0.093; V -0.026; S -0.04; R -0.041
T24: R -0.013; G -0.008; I -0.11; N -0.075; P -0.206; K 0.007; F -0.101; S -0.078; C -0.061; H -0.029; M 0.002; L -0.099; E -0.08; A -0.075; Y -0.116; V -0.029; D -0.208; Q -0.012; W -0.224
E30: R 0.01; H -0.016; M 0.025; K -0.01; G -0.122; A -0.039; Y -0.114; Q -0.035; I -0.03; D -0.024; L -0.026; V -0.029; T -0.071; S -0.007
L28: V -0.155; Q -0.612; T -0.315; F -0.225; C -0.399; A -0.467; I -0.026; E -0.63; W -0.284; D -0.692; G -0.825; P -0.77; M 0.026; S -0.639; R -0.78; N -0.415; K -0.791; Y -0.338
K13: H -0.032; Y -0.091; G -0.231; E -0.139; A -0.094; I -0.015; D -0.155; R -0.187; P -0.659; V -0.091; Q -0.035; L -0.114; T -0.218; S -0.078; W -0.3; F -0.182; C -0.008
S12: Y -0.13; T 0.001; Q -0.077; L -0.112; M -0.071; R -0.025; W -0.123; P -0.008; V -0.059; I -0.032; K 0.011; N 0
